Test results published in patent publication US20250387497A1, “MULTIVALENT MULTISPECIFIC CONJUGATES AND RELATED COMPOSITIONS AND METHODS OF USE” (Purdue Research Foundation, priority 2022, published 2025).
“And” between values parts separate entries of the source, which are not always exact repeats. Equal entries are not always repeated.

Columns and labels:
[1] = biological target: epidermal growth factor receptor (EGFR); assay: binding affinity, method not stated
[2] = biological target: Her2 (human epidermal growth factor receptor 2); assay: binding affinity, method not stated

Kd [1] [nM]	Kd [2]	Binder
459000	–	YHWYGYTPQNVI [peptide "E", binding motif for EGFR, …]
–	< 500 nM and 300 nM	FCGDGFYACYMDV [peptide "H", binding motif for Her2, …]
